Patent publication US20250179176A1, “ANTI-TIGIT ANTIBODIES AND USES OF THE SAME” (ARCUS BIOSCIENCES, INC., priority 2022, published 2025)
Entries after “also recorded” stand apart in the source; their conditions may differ.

Experiments:
CD8+ T cells = test: Ki67 on circulating CD8+ T cells (whole blood flow cytometry); assay type: in vivo, human
Protocol: Quantitation of Ki-67, a nuclear protein associated with cell cycle, is a common method to evaluate cell proliferation, especially in human samples ex vivo.
Immune cell profiling was conducted in whole blood by flow cytometry. For patients enrolled in the study described in Example 5 or Example 6, Ki67 changes on CD8^+ T cells were evaluated in whole blood by similar methods. Extracellular staining cocktails which included (minimally) CD3, CD8, and CD56 antibodies were added to 500 ul of whole blood and incubated on ice for 30 minutes. These markers were used to identify CD8^+ T cells (CD3^+CD56^− CD8^+) in both studies. For patients in the study of Example 6, extracellular cocktails also included CD45RA, CD39, and CD103 antibodies to identify an antigen-experienced memory CD8^+ T cell population (CD3^+CD56^−CD8^+CD45RA^−CD39^+CD103^+). Following extracellular staining, all blood samples were fixed and lysed using 1×BD FACSLyse buffer for 20 minutes on ice and then stored at −80° C. for up to 6 weeks. Upon thawing, samples were centrifuged at 400×g for 5 min to remove the lysing solution, washed in PBS, and then fixed and permeabilized in 100 ul of 1×FoxP3 Fixation Buffer for 1 hour at room temperature. […] The maximum fold change observed with the first cycle of treatment (between C1D1 and C2D29) was also determined for Ki67 expression on CD8^+ T cells.

[1] = test system: metastatic (Stage IV) squamous or non-squamous NSCLC; test: Phase 2 study in front-line NSCLC (ARC-7), efficacy; assay type: in vivo, human
Source text: Participants were randomized 1:1:1 across the three study arms and treated until disease progression or loss of clinical benefit. […] Patients in the zimberelimab monotherapy arm with confirmed progression had the option to cross over to the triplet arm. Co-primary endpoints were objective response rate (ORR) and progression-free survival (PFS). Secondary endpoints included safety, duration of response and disease control rates. Additional assessments of response/on-treatment effects may include measures of immune cell activation, immune cell suppression, immune cell proliferation, T cell receptor dynamics, and/or increases in memory and antigen experienced T cells in periphery or tumor microenvironment, as well as molecular response assessment by ctDNA dynamics and/or changes in tumor cell markers or gene expression.
Further data were obtained from an interim analysis with a data cutoff of Aug. 31, 2022.

[2] = Phase 2 study in front-line NSCLC (ARC-7), safety
human FcγR1 = human FcγR1 (Homo sapiens, UniProt P12314); test: ELISA binding of domvanalimab to FcγR; details: up to 1 μM, vs human IgG1 control
Protocol: Antibody-dependent cell mediated cytotoxicity (ADCC) is mediated by the antibody Fc domain binding to a FcγR. […] Human IgG1 was used as a positive control and buffer containing no antibody was used as a negative control.
Briefly, ELISA plate coating solution was prepared by diluting human Fc-gamma receptors in PBS to a final concentration of 1 μg/mL (FcγR1) or 4 μg/mL (Fcγ R2A, 2B, 3A and 3B). 30 μL of coating solution was added to each well of the test plates, and the ELISA plates were then incubated overnight at 4° C. to facilitate receptor binding. The following day, ELISA plates were washed four times with 80 μL wash buffer (1×PBS+0.05% Tween-20) per well, prior to blocking with 80 μL blocking buffer (1×PBS+2% BSA) per well at room temperature for 2 hours.
Plates were then incubated for an hour prior to removal of well contents by aspiration followed by four washes with wash buffer. 30 μL of anti-human IgG HRP conjugate at 1:2500 dilution in antibody buffer was added to each of the washed wells. Plates were further incubated at room temperature for an additional 30 minutes. […] Luminescent signals were captured using an Envision Multimode Reader (Perkin Elmer) system approximately 10 minutes after substrate addition.

[3] = efficacy population, later cutoff
[4] = all domvanalimab containing arms, 74 participants, initial cutoff

Sequence of human FcγR1 (P12314 16-374): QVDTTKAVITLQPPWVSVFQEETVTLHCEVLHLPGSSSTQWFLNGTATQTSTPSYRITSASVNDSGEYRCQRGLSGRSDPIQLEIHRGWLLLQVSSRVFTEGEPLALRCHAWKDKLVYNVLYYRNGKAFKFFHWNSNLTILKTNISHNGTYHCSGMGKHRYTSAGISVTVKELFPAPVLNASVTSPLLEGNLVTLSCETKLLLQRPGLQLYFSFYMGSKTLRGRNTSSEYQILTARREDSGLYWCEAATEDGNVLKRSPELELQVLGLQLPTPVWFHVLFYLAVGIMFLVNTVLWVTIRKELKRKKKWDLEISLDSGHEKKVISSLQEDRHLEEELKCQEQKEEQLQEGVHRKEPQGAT

## zimberelimab: antagonistic PD-1 antibody, immune checkpoint inhibitor
CD8+ T cells; patients of the Example 6 study, PD-L1hi NSCLC
  proliferating CD8+ T cells: Increases
[1]; ITT-13, cutoff Aug. 31, 2022
  patients with partial response remaining on treatment: 5 n
  patients with stable disease remaining on treatment: 3 n
[1]; Kaplan Meier, ITT-13
  6-month progression-free survival rate: 43%
  median PFS: 5.4 months
[1]; [3]
  6-mo PFS % (95% CI): 43 (27, 59) %
  CORR (confirmed Objective Response Rate, per RECIST v1.1): 12 (27) n (%)
  Complete Response: 0 (0) n (%)
  Not Evaluable: 7 (16) n (%)
  Partial Response: 12 (27) n (%)
  Progressive Disease: 11 (25) n (%)
  Stable Disease: 14 (32) n (%)
  median PFS: 5.4 mo
[2]; Table 4, initial cutoff
  Any TEAEs Leading to Death: 3 (8) n (%)
[2]; Table 7, initial cutoff
  SAE COVID-19, events: 0 n
  SAE COVID-19, subjects: 0 n (%)
[2]; Table 10, later cutoff
  Any TEAEs Leading to Death: 3 (6.0) n (%)
  Any TEAEs Leading to Death, related to study treatment: 1 (2.0) n (%)
[2]; safety population (149 patients)
  Grade 5 TEAEs related to study treatment (per physician assessment): interstitial lung disease

B1: domvanalimab: anti-TIGIT antibody with engineered IgG1 Fc, reduced FcγR binding; heavy chain SEQ ID NO: 12, light chain SEQ ID NO: 13 (antibody)
heavy: EVQLVESGGGLVQPGGSLRLSCAASGFTFSNFGMHWVRQAPGKGLEWVAFISSGSSSIYYADTVKGRFTISRDNAKNSLYLQMNSLRAEDTAVYYCARMRLDYYAMDYWGQGTMVTVSSASTKGPSVFPLAPSSKSTSGGTAALGCLVKDYFPEPVTVSWNSGALTSGVHTFPAVLQSSGLYSLSSVVTVPSSSLGTQTYICNVNHKPSNTKVDKKVEPKSCDKTHTCPPCPAPEAAGGPSVFLFPPKPKDTLMISRTPEVTCWVDVSHEDPEVKFNWYVDGVEVHNAKTKPREEQYNSTYRWSVLTVLHQDWLNGKEYKCKVSNKALPAPIEKTISKAKGQPREPQVYTLPPSRDELTKNQVSLTCLVKGFYPSDIAVEWESNGQPENNYKTTPPVLDSDGSFFLYSKLTVDKSRWQQGNVFSCSVMHEALHNHYTQKSLSLSPGK
light: DIQMTQSPSSLSASVGDRVTITCRASKSISKYLAWYQQKPGKAPKLLIYSGSTLQSGVPSRFSGSGSGTDFTLTISSLQPEDFATYYCQQHNEYPWTFGGGTKVEIKRTVAAPSVFIFPPSDEQLKSGTASWCLLNNFYPREAKVQWKVDNALQSGNSQESVTEQDSKDSTYSLSSTLTLSKADYEKHKVYACEVTHQGLSSPVTKSFNRGEC
CD8+ T cells; patients of the Example 5 study
  proliferative marker (Ki67) on circulating CD8+ T cells: increases
[2]; 74 participants, case received domvanalimab and zimberelimab
  fatal case of myocarditis related to study treatment: 1.3%
[2]; 74 participants, case received domvanalimab, zimberelimab and etrumadenant
  fatal case of pneumonitis related to study treatment: 1.3%
[2]; [4]
  TEAE leading to domvanalimab dose modification/interruption: 27.0%
  discontinued domvanalimab due to a TEAE: 4.0%
  participants with TEAE Grade ≥3: 45.9%
  participants with TEAEs Grade ≥3 related to domvanalimab: 10.8%
  participants with at least 1 TEAE: 93.2%
  participants with serious adverse events: 25.6%
  participants with treatment related AE related to domvanalimab: 56.7%
  participants with treatment related SAEs: 8.3%
Human FcγR1
  binding to human FcγR1: no significant binding; also recorded: does not bind
